Reference: patent US20220348635A1, “COMPOSITIONS AND METHODS FOR NEUROLOGICAL DISEASES” (Coda Biotherapeutics, Inc., priority 2019, published 2022)

Key:
Format in all cases: cell-based
[1] = YFP quench plate reader assay, response to acetylcholine; conditions: LX293T YFP reporter cells; for percent quench of YFP fluorescence, 10 uM ach: 10 uM acetylcholine; for percent quench of YFP fluorescence, 100 uM ach: 100 uM acetylcholine; for percent quench of YFP fluorescence, 1 mM ach: 1 mM acetylcholine; for percent quench of YFP fluorescence, 3 mM ach: 3 mM acetylcholine
Description: (§1) FIGS. 1A-FIG. 1G show the heat maps of the percent quench of YFP fluorescence in the mutants of the engineered chimeric receptor SEQ ID NO:33 that comprise the indicated double amino acid substitutions following stimulation by various doses of either acetylcholine or the indicated non-native ligand. Ligand doses are written across the top of each chart. Numbers in the boxes indicate the absolute amount of quench observed. Dark blue=80% maximal quench of YFP reporter. Light blue=quench of 30-80%. White=10-30%. Orange=0-10% quench. Negative values represent non-responders that have a negative quench due to a stimulation artifact. SEQ ID NO:29 is a non-responding chimera used as a negative control. Abbreviations for non-native ligand names: abt: ABT-126; ach: acetylcholine; apn: APN-1125; azd: AZD-0328; brd: TC-5619; fac: RG3487; tc6: TC-6987.
(§2) Tables 2-8 below lists percent quench of YFP fluorescence following stimulation of the indicated engineered receptor by various doses of either acetylcholine or the non-native ligand.
(§3) To screen these mutant LGICs for those having novel response profiles to ligands, an anion reporter assay was developed to assess the function of channels in a high throughput format. In this assay, cells expressing a YFP reporter whose fluorescence is quenched in the presence of anion are transfected with DNA encoding the channel of interest. Upon exposure to ligand, channels that are activated will flux anion, resulting in a dose-dependent quench of the YFP that can be detected on a plate reader.
(§4) Lenti-X 293T cells (LX293T, Clontech) were maintained in DMEM containing 10% FBS and 1% penicillin/streptomycin (Invitrogen). […] Two days before assay, cells were split at a density of 20,000 cells/well in a 96-well tissue culture plate coated with poly-d lysine (Thermo Scientific). The next day, the cells were transiently transfected with 0.1 μg of DNA per well using standard Fugene protocol (Promega). On the day of assay, cells were washed 2 times in 1× extracellular solution (1×ECS: 140 mM NaCl, 5 mM KCl, 1 mM MgCl2, 2 mM CaCl2, 10 mM HEPES, 10 mM glucose, pH 7.2, mOsms 300). After the last wash, 100 μL of 1×ECS was added to the wells and the plate was incubated at 37° C. for 30 min. While incubating the plate, the drugs were diluted to a 2× concentration in 1×ECS-NaI (same components as 1×ECS except the 140 mM NaCl was replaced by 140 mM NaI). The plates were then read on a Flexstation3 (Molecular Devices). Each well, 8 wells at a time, of the plate is read for 2 min using a Flexstation3 (Molecular Devices) as follows: 1) a baseline YFP fluorescence is read for 17 sec, 2) 100 μL of ligand is added, and 3) the changes in YFP fluorescence are then measured every 1.3 sec for the remaining time.
(§5) FIG. 1 provides heat maps of the percent quench of YFP fluorescence following stimulation by various doses of either acetylcholine or the non-native ligand as indicated in the Figure. A positive fluorescence signal, as indicated by blue shaded cells, indicate that the engineered receptor is activated by the non-native ligand at that concentration. […] Table 12 lists the EC50 values for the indicated double mutants to acetylcholine (Ach) and TC-5619 as determined from the YFP fluorescence plate reader experiment.

[2] = YFP quench plate reader assay, response to RG3487; conditions: LX293T YFP reporter cells; for percent quench of YFP fluorescence, 30 nM fac: 30 nM RG3487; for percent quench of YFP fluorescence, 300 nM fac: 300 nM RG3487; for percent quench of YFP fluorescence, 30 uM fac: 30 uM RG3487
Description: as §1, §2, §3, §4, §5

[3] = YFP quench plate reader assay, response to APN-1125; conditions: LX293T YFP reporter cells; for percent quench of YFP fluorescence, 100 nM apn: 100 nM APN-1125; for percent quench of YFP fluorescence, 1 uM apn: 1 uM APN-1125; for percent quench of YFP fluorescence, 30 uM apn: 30 uM APN-1125
Description: as §1, §2, §3, §4, §5

[4] = YFP quench plate reader assay, response to ABT-126; conditions: LX293T YFP reporter cells; for percent quench of YFP fluorescence, 50 nM abt: 50 nM ABT-126; for percent quench of YFP fluorescence, 100 nM abt: 100 nM ABT-126; for percent quench of YFP fluorescence, 300 nM abt: 300 nM ABT-126; for percent quench of YFP fluorescence, 1 uM abt: 1 uM ABT-126
Description: as §1, §2, §3, §4, §5

[5] = YFP quench plate reader assay, response to TC-6987; conditions: LX293T YFP reporter cells; for percent quench of YFP fluorescence, 1 uM tc6: 1 uM TC-6987; for percent quench of YFP fluorescence, 10 uM tc6: 10 uM TC-6987; for percent quench of YFP fluorescence, 500 uM tc6: 500 uM TC-6987
Description: as §1, §2, §3, §4, §5

[6] = YFP quench plate reader assay, response to TC-5619; conditions: LX293T YFP reporter cells
Description: as §1, §2, §3, §4, §5

[7] = YFP quench plate reader assay, response to AZD-0328; conditions: LX293T YFP reporter cells; for percent quench of YFP fluorescence, 100 nM azd: 100 nM AZD-0328; for percent quench of YFP fluorescence, 300 nM azd: 300 nM AZD-0328; for percent quench of YFP fluorescence, 30 uM azd: 30 uM AZD-0328
Description: as §1, §2, §3, §4, §5

[8] = High throughput electrophysiology in HEK293T cells, AZD-0328; conditions: HEK293T cells, held at −60 mV
Procedure: To confirm the EC50s determined by plate reader as well as develop a better understanding of maximum current flow, the engineered receptors were subjected to high throughput electrophysiology system, as described below. For HEK293T studies, cDNAs encoding ion channels were cloned into pcDNA3.1 using standard recombination techniques. HEK293T cells from Clontech (Lenti-X™ 293T Cell Line) were cultured in DMEM supplemented with 10% FBS and 1% Pen/Strep to 40-50% confluence using standard cell culture protocols, transfected with ion channel plasmids at a concentration of 18 μg per 15 cm dish using Fugene 6, and grown for an additional 24 hours. Cells were then assayed on a electrophysiological system (IonFluxHT and/or Mercury, Fluxion Biosciences) in which dose-response relationships may be assessed through a microfluidics-based platform for establishing whole cell configurations. Ensemble plates were primed with extracellular buffer (140 mM NaCl, 5 mM KCl, 2 mM CaCl2), 1 mM MgCl2, 10 mM HEPES, and 10 mM glucose, pH 7.2 with NaOH, mOsm 310), intracellular buffer (145 mM CsCl, 2 mM CaCl2, 2 mM MgCl2, 10 mM HEPES, and 10 mM EGTA, pH 7.2 with CsOH, mOsm 305), as adapted from Lynagh and Lynch, and test compounds (stocks prepared fresh) diluted in extracellular buffer. Cells were then released from the plate with Accutase, centrifuged, resuspended in extracellular buffer, and loaded into Ensemble plates. Cells were then subjected to a standard protocol for priming, trapping, breaking, and establishing whole cell configuration, with cells held at −60 mV throughout the recording. After recording baseline, progressive doses of test compounds were applied using the IonFlux software to assess dose response relationships. Data were then analyzed off-line using custom Python scripts to convert data to .csv format, re-plot traces, and apply QC measurements to reject unstable recordings (i.e. thresholding based on access resistance and/or standard deviation in baseline, as well as artifact rejection). Peak currents were then calculated and population data were fit using a 4-parameter logistic equation as described by the Hill Equation. Currents were measured on an automated patch clamp system (Fluxion Biosciences) following 1 second addition of drug and the EC50 values calculated are tabulated below in Table 13.

Molecule	percent quench of YFP fluorescence, 10 uM ach [1] [%]	percent quench of YFP fluorescence, 100 uM ach [1] [%]	percent quench of YFP fluorescence, 1 mM ach [1] [%]	percent quench of YFP fluorescence, 3 mM ach [1] [%]	percent quench of YFP fluorescence, 30 nM fac [2] [%]	percent quench of YFP fluorescence, 300 nM fac [2] [%]	percent quench of YFP fluorescence, 30 uM fac [2] [%]	percent quench of YFP fluorescence, 100 nM apn [3] [%]	percent quench of YFP fluorescence, 1 uM apn [3] [%]	percent quench of YFP fluorescence, 30 uM apn [3] [%]	percent quench of YFP fluorescence, 50 nM abt [4] [%]	percent quench of YFP fluorescence, 100 nM abt [4] [%]	percent quench of YFP fluorescence, 300 nM abt [4] [%]	percent quench of YFP fluorescence, 1 uM abt [4] [%]	percent quench of YFP fluorescence, 1 uM tc6 [5] [%]	percent quench of YFP fluorescence, 10 uM tc6 [5] [%]	percent quench of YFP fluorescence, 500 uM tc6 [5] [%]	percent quench of YFP fluorescence, 100 nM azd [7] [%]	percent quench of YFP fluorescence, 300 nM azd [7] [%]	percent quench of YFP fluorescence, 30 uM azd [7] [%]	further results
L131S, S172D in SEQ ID NO: 33: engineered chimeric α7-nAChR/GlyRα1 LGIC receptor: SEQ ID NO: 33 with substitutions L131S and S172D (protein, synthetic sequence of chimeric LGIC) MRCSPGGVWLALAASLLHVSLQGEFQRKLYKELVKNYNPLERPVANDSQPLTVYFSLSLLQIMDVDEKNQVLTTNIWLQMSWTDHYLQWNVSEYPGVKTVRFPDGQIWKPDILLYNSADERFDATFHTNVSVNSSGHCQYLPPGIFKSSCPMDLKNFPMDVQTCKLKFGSWDYGGWSLDLQMQEADISGYIPNGEWDLVGIPGKRSERFYECCKEPYPDVTFTVTMRRRMGYYLIQMYIPSLLIVILSWISFWINMDAAPARVGLGITTVLTMTTQSSGSRASLPKVSYVKAIDIWMAVCLLFVFSALLEYAAVNFVSRQHKELLRFRRKRRHHKSPMLNLFQEDEAGEGRFNFSAYGMGPACLQAKDGISVKGANNSNTTNPPPAPSKSPEEMRKLFIQRAKKIDKISRIGFPMAFLIFNMFYWIIYKIVRREDVHNQ	−11.3	−27.53	2.84	14.65	−23.44	2.75	61.44	14.26	45.55	64.93	−11.96	−10.72	11.65	−3.06	−20.99	−27.62	−24.22	−9.32	4.94	60.61	percent quench of YFP fluorescence, 10 uM fac ([2]; 10 uM RG3487): 69.71%; percent quench of YFP fluorescence, 1 nM brd ([6]; 1 nM TC-5619): −1.13%; percent quench of YFP fluorescence, 3 nM brd ([6]; 3 nM TC-5619): −3.83%; percent quench of YFP fluorescence, 10 nM brd ([6]; 10 nM TC-5619): −3.78%; percent quench of YFP fluorescence, 100 nM brd ([6]; 100 nM TC-5619): −2.03%; percent quench of YFP fluorescence, 1 uM brd ([6]; 1 uM TC-5619): 1.68%
Y115D in SEQ ID NO: 33: SEQ ID NO: 33 chimeric receptor with single substitution Y115D (protein, synthetic sequence of chimeric LGIC) MRCSPGGVWLALAASLLHVSLQGEFQRKLYKELVKNYNPLERPVANDSQPLTVYFSLSLLQIMDVDEKNQVLTTNIWLQMSWTDHYLQWNVSEYPGVKTVRFPDGQIWKPDILLDNSADERFDATFHTNVLVNSSGHCQYLPPGIFKSSCPMDLKNFPMDVQTCKLKFGSWSYGGWSLDLQMQEADISGYIPNGEWDLVGIPGKRSERFYECCKEPYPDVTFTVTMRRRMGYYLIQMYIPSLLIVILSWISFWINMDAAPARVGLGITTVLTMTTQSSGSRASLPKVSYVKAIDIWMAVCLLFVFSALLEYAAVNFVSRQHKELLRFRRKRRHHKSPMLNLFQEDEAGEGRFNFSAYGMGPACLQAKDGISVKGANNSNTTNPPPAPSKSPEEMRKLFIQRAKKIDKISRIGFPMAFLIFNMFYWIIYKIVRREDVHNQ																					EC50 AZD-0328 [8]: no activity
L131T, S172D in SEQ ID NO: 33: engineered chimeric α7-nAChR/GlyRα1 LGIC receptor: SEQ ID NO: 33 with substitutions L131T and S172D (protein, synthetic sequence of chimeric LGIC) MRCSPGGVWLALAASLLHVSLQGEFQRKLYKELVKNYNPLERPVANDSQPLTVYFSLSLLQIMDVDEKNQVLTTNIWLQMSWTDHYLQWNVSEYPGVKTVRFPDGQIWKPDILLYNSADERFDATFHTNVTVNSSGHCQYLPPGIFKSSCPMDLKNFPMDVQTCKLKFGSWDYGGWSLDLQMQEADISGYIPNGEWDLVGIPGKRSERFYECCKEPYPDVTFTVTMRRRMGYYLIQMYIPSLLIVILSWISFWINMDAAPARVGLGITTVLTMTTQSSGSRASLPKVSYVKAIDIWMAVCLLFVFSALLEYAAVNFVSRQHKELLRFRRKRRHHKSPMLNLFQEDEAGEGRFNFSAYGMGPACLQAKDGISVKGANNSNTTNPPPAPSKSPEEMRKLFIQRAKKIDKISRIGFPMAFLIFNMFYWIIYKIVRREDVHNQ	−12.24	−26.23	−1.16	2.97	−21.36	4.17	65.94	1.23	35.77	68.29	−11.09	−10.37	−4	4.05	−21.8	−27.08	−21.56	−7.02	−0.48	70.16	
